Results published in patent US20250179196A1 (Janssen / Centocor, published 2025).

Molecular target: T1, Recombinant human IL-23 receptor (IL-23R) extracellular domain (ECD) protein (human, UniProt Q5VWK5 24-355)
T1 construct: also called human IL-23R ECD; hu IL-23R ECD
T1 sequence: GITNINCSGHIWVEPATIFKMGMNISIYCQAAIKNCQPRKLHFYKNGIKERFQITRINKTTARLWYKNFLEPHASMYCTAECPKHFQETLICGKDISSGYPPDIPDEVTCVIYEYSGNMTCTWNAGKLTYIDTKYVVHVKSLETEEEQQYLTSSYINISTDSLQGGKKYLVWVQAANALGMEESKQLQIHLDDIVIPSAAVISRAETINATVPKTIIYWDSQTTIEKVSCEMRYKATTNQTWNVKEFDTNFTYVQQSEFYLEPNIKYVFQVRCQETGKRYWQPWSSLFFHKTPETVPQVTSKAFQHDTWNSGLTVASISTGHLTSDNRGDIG
Experiment: SPR Biacore 8K, supernatant, analysis 1
Protocol: (§1) Affinity by SPR using Biacore 8K. Affinity measurements using Surface Plasmon Resonance (SPR) were performed using a Biacore 8K system (Cytiva). […] Approximately 9000-10000 RU (response units) of mAbs were immobilized. The kinetic experiments were performed at 25° C. in running buffer 1× of (HBS-P+ Buffer 10× (Cytiva #BR100671)+100 μg/ml BSA). To perform kinetic experiments, approximately 150 RU of mAbs were captured followed by injections of human IL-23R or rat IL-23R at concentrations ranging from 0.8 nM to 500 nM (in a 5-fold serial dilution). The association phase was monitored for 3 minutes at 50 μL/min, then followed by 30 minutes of buffer flow (dissociation phase). […] The collected data were processed using Biacore insight Evaluation software (Version 3.0.12.15655). The kinetic analysis of the data was performed using a Langmuir 1:1 binding model. The result for each mAb was reported in the format of Ka (On-rate), Kd (Off-rate) and KD (equilibrium dissociation constant).

Row | Binder | Kd | koff | kon
1 | I23RB180 (antibody, mouse IgG2a, kappa, V domains shown, mouse immunization; mouse IgG2a/kappa) VH: QVTLKESGPGILQPSQTLSLTCSFSGFSLSTYGMGVGWIRQPSGKGLEWLANIWWNDSKYHNAALKSRLTISKDTSKNQVFLKIASVDTADTATYYCGRIDGYYECVDVWGTGTSVTVSS VL: DIQMTQSPASLSASVGETVTITCRASVNIHNYLAWYQQKQGKSPQLLVYNAKTLADGVPSRFSGSGSGTQYSLKINSLQPEDFGSYYCQHFWTTPYMYTFGAGTKLELKR | 0.15 µM | 0.0302 s⁻¹ | 201000 M⁻¹ s⁻¹
2 | I23RB45 (antibody, mouse IgG2a, kappa, V domains shown, mouse immunization; mouse IgG2a/kappa) VH: QVTLKESGPGILQPSQTLSLTCSFSGFSLSTYGMGVSWIRQPSGKGLEWLAHIYWDDDKRYNPSLKSRLTISKDTSNNQVFLKITSVDTADTATYYCAQRALPLLGQKAPFDYWGQGTTLTVSS VL: DIVLTQSQKFISTSVGDRVSITCKASQNVRTAVAWYQQKPGQSPKLLIYLPSNRHTGVPDRFTGSGSGTVFTLTISNVQSEDQADYFCLQHWNYPLTFGAGTKLELKR | 0.021 µM | 0.00332 s⁻¹ | 158000 M⁻¹ s⁻¹
3 | I23RB91 (antibody, mouse IgG2a, kappa, V domains shown, mouse immunization; mouse IgG2a/kappa) VH: EFQLQQFGPELLKPGASVKISCKASGYTFTDYIMHWVKQSHGKSLEWIGGISPNYGGTGYNGKFKDKATLTVDKSSSTAYMELRSLTSEDSAVYYCARFNNYYYFDYWGQGTTLTVSS VL: DIKMTQSPSSMYASLGERVTITCKASQDINSYLSWCQQKPGKSPKALIYRANSLVDGVPSRFSGSGSGQDYSLTISSLEYEDMGIYYCLQYDEFPYTFGGGTKLEMKR | 0.00515 µM | 0.00011 s⁻¹ | 21400 M⁻¹ s⁻¹
4 | I23RB177 (antibody, mouse IgG2a, kappa, V domains shown, mouse immunization; mouse IgG2a/kappa) VH: EVQLQQSGPELLKPGASVKISCKASGYTITDYTMHWVKQSHGKSLEWIGGINPNYGGTSYNEKFKDKATLTVDKSSSTAYMELRSLTSEDSAVFYCVRGNIYFDYWGQGTTLTVSS VL: NTQMTQSPSSMYASLGERVTITCKASQDINSYLSWFQQKPGKSPKALIYRANRLVDGVPSRFSGSGSGQDYSLTISSLEYEDMGIYYCQQYDEFPRTFGAGTKLELKR | 0.0057 µM | 0.000107 s⁻¹ | 18800 M⁻¹ s⁻¹
5 | I23RB161 (antibody, mouse IgG2a, kappa, V domains shown, mouse immunization; mouse IgG2a/kappa) VH: EFQLQQSGPELVKPGASVKISCKASVYAFSSSWMNWVKQRPGKGLEWIGRIYPGDGDTNYNGKFKGKATLTADKSSSTAYMQLSSLTSEDSAVYFCARRYDFGSAMDYWGQGTSVTVSS VL: DIVMTQSPAILSASPGEKVTMTCRASSSVSYMHWYQQKPGSSPKPWIYATSDLASGAPARFSGSGSGTSYSLTISRVEAEDAATYYCQQWSSNPPTFGGGTKLEIKR | 0.0845 µM | 0.0274 s⁻¹ | 324000 M⁻¹ s⁻¹
6 | I23RB69 (antibody, mouse IgG2a, kappa, V domains shown, mouse immunization; mouse IgG2a/kappa) VH: EVQLQQSGAELVKPGASVKISCKASGYSFTGYNMNWVKQSHGKSLEWIGNINPFYDKTSYNQKFKGKATLTVDKASSTAYMQLNSLTSEDSAVYYCARQLGLKGFAYWGQGTLVTVSA VL: DIVMTQSHKFMSTSVGDRVSITCKASQDVSTAVAWYQQKPGQSPKLLIYSASYRYTGVPDRFTGSGSGTDFTFTISSVQAEDLAVYYCQQHYSTPWTFGGGTKLEMKR | 0.263 µM | 0.0493 s⁻¹ | 188000 M⁻¹ s⁻¹
7 | I23RB317 (antibody, mouse IgG2a, kappa, V domains shown, phage display; human V regions, mouse IgG2a/kappa constant regions) VH: QVQLVQSGAEVKKPGSSVKVSCKASGGTFSSYAISWVRQAPGQGLEWMGGIIPIFGTANYAQKFQGRVTITADESTSTAYMELSSLRSEDTAVYYCARGNGVNYHSELDYWGQGTLVTVSS VL: EIVLTQSPATLSLSPGERATLSCRASQSVDSFLAWYQQKPGQAPRLLIYTASNRATGIPARFSGSGSGTDFTLTISSLEPEDFAVYYCQQGNSAPFTFGQGTKVEIKR | 0.0252 µM | 0.000596 s⁻¹ | 23600 M⁻¹ s⁻¹
8 | I23RB260 (antibody, mouse IgG2a, kappa, V domains shown, phage display; human V regions, mouse IgG2a/kappa constant regions) VH: QVQLVQSGAEVKKPGSSVKVSCKASGGTFSSYGISWVRQAPGQGLEWMGGIIPIFGTANYAQKFQGRVTITADESTSTAYMELSSLRSEDTAVYYCARDFGWSLWFDYWGQGTLVTVSS VL: not shown | 0.00475 µM | 8.72e-05 s⁻¹ | 18400 M⁻¹ s⁻¹
9 | I23RB85 (antibody, mouse IgG2a, kappa, V domains shown, mouse immunization; mouse IgG2a/kappa) VH: DVQLQESGPGLVAPSQSLSITCTVSGFSFNTYAITWVRQPPGRGLEWLGVLWPGGGISYNLALKSRLTISRDSSKSQVFLEMNSLQTDDTARYYCARNWRHYDGSYAMDFWGQGTSVTVSS VL: DIVLTQSPLSLFVSLGDQASISCRSSQSLVHSNGNTYLHWYLQKPGQSPKLLIYKVSNRFSGVPDRFSGSGSGTDFTLKISRVEAEDLGVYFCSQSTHVPWTFGGGTRLEIKR | 0.00108 µM | 0.000226 s⁻¹ | 210000 M⁻¹ s⁻¹
10 | I23RB321 (antibody, mouse IgG2a, kappa, V domains shown, phage display; human V regions, mouse IgG2a/kappa constant regions) VH: QVQLVQSGAEVKKPGSSVKVSCKASGGTFSSYGISWVRQAPGQGLEWMGWISAIFGTTNYAQKFQGRVTITADESTSTAYMELSSLRSEDTAVYYCARHWLQSFDYWGQGTLVTVSS VL: DIQMTQSPSSLSASVGDRVTITCRASQSIGGDLNWYQQKPGKAPKLLIYAASSLQSGVPSRFSGSGSGTDFTLTISSLQPEDFATYYCQQSYSTPLTFGQGTKVEIKR | 0.0184 µM | 0.000384 s⁻¹ | 20900 M⁻¹ s⁻¹
11 | I23RB264 (antibody, mouse IgG2a, kappa, V domains shown, phage display; human V regions, mouse IgG2a/kappa constant regions) VH: QVQLVQSGAEVKKPGSSVKVSCKASGGTFSSYAISWVRQAPGQGLEWMGGIIPIFGTANYAQKFQGRVTITADESTSTAYMELSSLRSEDTAVYYCARRSSPGFDYWGQGTLVTVSS VL: DIQMTQSPSSLSASVGDRVTITCRASQSIDNDLNWYQQKPGKAPKLLIYNASSLQSGVPSRFSGSGSGTDFTLTISSLQPEDFATYYCQQPYSIPLTFGQGTKVEIKR | 0.0179 µM | 0.000847 s⁻¹ | 47400 M⁻¹ s⁻¹
12 | I23RB261 (antibody, mouse IgG2a, kappa, V domains shown, phage display; human V regions, mouse IgG2a/kappa constant regions) VH: QVQLVQSGAEVKKPGSSVKVSCKASGGTFSSYAISWVRQAPGQGLEWMGWISPYFGTANYAQKFQGRVTITADESTSTAYMELSSLRSEDTAVYYCARMYRQGFDYWGQGTLVTVSS VL: DIQMTQSPSSLSASVGDRVTITCRASQSINDDLNWYQQKPGKAPKLLIYAASSLQSGVPSRFSGSGSGTDFTLTISSLQPEDFATYYCQQSYSTPLTFGQGTKVEIKR | 0.0225 µM | 0.000402 s⁻¹ | 17900 M⁻¹ s⁻¹
13 | I23RB259 (antibody, mouse IgG2a, kappa, V domains shown, phage display; human V regions, mouse IgG2a/kappa constant regions) VH: QVQLVQSGAEVKKPGSSVKVSCKASGGTFSSYGISWVRQAPGQGLEWMGWISPIFGTTNYAQKFQGRVTITADESTSTAYMELSSLRSEDTAVYYCARMMMQSLDYWGQGTLVTVSS VL: not shown | 0.0134 µM | 0.000752 s⁻¹ | 55900 M⁻¹ s⁻¹
14 | I23RB319 (antibody, mouse IgG2a, kappa, V domains shown, phage display; human V regions, mouse IgG2a/kappa constant regions) VH: QVQLVQSGAEVKKPGSSVKVSCKASGGTFSSYGISWVRQAPGQGLEWMGWISAIFGTTNYAQKFQGRVTITADESTSTAYMELSSLRSEDTALYYCARPLKQAFDYWGQGTLVTVSS VL: DIQMTQSPSSLSASVGDRVTITCRASQSITDDLNWYQQKPGKAPKLLIYAASSLQSGVPSRFSGSGSGTDFTLTISSLQPEDFATYYCQQSYSTPLTFGQGTKVEIKR | 0.00905 µM | 8.01e-05 s⁻¹ | 8850 M⁻¹ s⁻¹

Molecular target: T1, Recombinant human IL-23 receptor …
Experiment: SPR Biacore 8K, supernatant, analysis 2
Protocol: as §1

Row | Binder | Kd | koff | kon
15 | I23RB45 (antibody, mouse IgG2a, kappa, V domains shown, mouse immunization; mouse IgG2a/kappa) VH: QVTLKESGPGILQPSQTLSLTCSFSGFSLSTYGMGVSWIRQPSGKGLEWLAHIYWDDDKRYNPSLKSRLTISKDTSNNQVFLKITSVDTADTATYYCAQRALPLLGQKAPFDYWGQGTTLTVSS VL: DIVLTQSQKFISTSVGDRVSITCKASQNVRTAVAWYQQKPGQSPKLLIYLPSNRHTGVPDRFTGSGSGTVFTLTISNVQSEDQADYFCLQHWNYPLTFGAGTKLELKR | 0.0225 µM | 0.00456 s⁻¹ | 203000 M⁻¹ s⁻¹
16 | I23RB85 (antibody, mouse IgG2a, kappa, V domains shown, mouse immunization; mouse IgG2a/kappa) VH: DVQLQESGPGLVAPSQSLSITCTVSGFSFNTYAITWVRQPPGRGLEWLGVLWPGGGISYNLALKSRLTISRDSSKSQVFLEMNSLQTDDTARYYCARNWRHYDGSYAMDFWGQGTSVTVSS VL: DIVLTQSPLSLFVSLGDQASISCRSSQSLVHSNGNTYLHWYLQKPGQSPKLLIYKVSNRFSGVPDRFSGSGSGTDFTLKISRVEAEDLGVYFCSQSTHVPWTFGGGTRLEIKR | 0.00143 µM | 0.000178 s⁻¹ | 124000 M⁻¹ s⁻¹
